Like-named read-outs stand apart in the source and are kept apart here.
How the values were obtained:
[1] = target: His-tagged eukaryotic translation initiation factor 1 (His–eIF1), labelled with NT650 (UniProt P32911); test: temperature-related intensity change assay
[2] = target: His-tagged eukaryotic translation initiation factor 1 (His–eIF1), labelled with NT650 (UniProt P32911); test: temperature-related intensity change assay; remark: listed apart in the source

Sequence of UniProt P32911 (P32911 whole entry): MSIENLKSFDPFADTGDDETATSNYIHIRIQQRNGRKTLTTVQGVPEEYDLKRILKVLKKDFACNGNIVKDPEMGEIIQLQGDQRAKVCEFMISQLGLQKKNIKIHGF

Substance | Kd [1] [nM] | Kd [2] [nM]
40S ribosomal subunit from wild-type control (BY4741 / BCD1) yeast cells (from UniProt P05750 1-240) (complex) | 23 | 
hypo-2′-O-methylated 40S ribosomal subunit from bcd1-D72A yeast cells (from UniProt P05750 1-240) (complex) | 64 | 63

From paper PMC8944910
